# Experimental data from publication PMC4837482, “The complex binding mode of the peptide hormone H2 relaxin to its receptor RXFP1” (Nature Communications, 2016).
# Where “and” joins values, the source holds several entries; their conditions need not be identical. Equal values may be shown once.
# Columns and labels:
# RXFP1 G41D42-AA = target: T1, RXFP1 G41D42-AA (Homo sapiens, UniProt Q9HBX9, D64A/G63A); assay: Eu-H2 relaxin saturation binding assay, transfected HEK293T cells; details: construct G41D42-AA, maximum H2 concentration 15 nM
# T1 construct: transiently transfected human embryonic kidney (HEK) 293T cells expressing full-length RXFP1 and mutants; expressed in transfected cells; host or cells: HEK293T
# T1 sequence (Q9HBX9 23-757 G63A/D64A limits assumed): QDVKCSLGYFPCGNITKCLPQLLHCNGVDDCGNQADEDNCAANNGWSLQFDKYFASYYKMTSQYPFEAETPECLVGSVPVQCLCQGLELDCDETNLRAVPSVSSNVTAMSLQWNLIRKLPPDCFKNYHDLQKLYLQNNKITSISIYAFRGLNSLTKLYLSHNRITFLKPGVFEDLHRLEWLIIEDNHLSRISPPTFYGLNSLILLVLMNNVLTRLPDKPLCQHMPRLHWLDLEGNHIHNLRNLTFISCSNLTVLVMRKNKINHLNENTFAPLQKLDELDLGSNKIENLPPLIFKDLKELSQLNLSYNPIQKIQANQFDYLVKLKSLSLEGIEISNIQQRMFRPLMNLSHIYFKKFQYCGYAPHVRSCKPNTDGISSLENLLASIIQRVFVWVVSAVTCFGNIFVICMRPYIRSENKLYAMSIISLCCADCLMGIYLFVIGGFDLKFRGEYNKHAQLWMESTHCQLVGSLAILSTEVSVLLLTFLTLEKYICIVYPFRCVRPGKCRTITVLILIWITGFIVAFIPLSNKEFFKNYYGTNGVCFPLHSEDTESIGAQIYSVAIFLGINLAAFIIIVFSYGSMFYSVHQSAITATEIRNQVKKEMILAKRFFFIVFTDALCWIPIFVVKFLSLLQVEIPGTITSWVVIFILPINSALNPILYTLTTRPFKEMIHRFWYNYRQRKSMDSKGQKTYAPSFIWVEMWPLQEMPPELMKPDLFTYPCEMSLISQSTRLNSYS
# RXFP1 C40A^ins = target: T2, RXFP1 C40A^ins (Homo sapiens, UniProt Q9HBX9, INS62A); assay: as above; details: C40A^ins full-length RXFP1 versus wild-type RXFP1
# T2 construct: cells expressing full-length RXFP1 and mutants; expressed in transfected cells; host or cells: HEK293T
# T2 sequence (Q9HBX9 with tags, fused parts or gaps INS62A limits assumed): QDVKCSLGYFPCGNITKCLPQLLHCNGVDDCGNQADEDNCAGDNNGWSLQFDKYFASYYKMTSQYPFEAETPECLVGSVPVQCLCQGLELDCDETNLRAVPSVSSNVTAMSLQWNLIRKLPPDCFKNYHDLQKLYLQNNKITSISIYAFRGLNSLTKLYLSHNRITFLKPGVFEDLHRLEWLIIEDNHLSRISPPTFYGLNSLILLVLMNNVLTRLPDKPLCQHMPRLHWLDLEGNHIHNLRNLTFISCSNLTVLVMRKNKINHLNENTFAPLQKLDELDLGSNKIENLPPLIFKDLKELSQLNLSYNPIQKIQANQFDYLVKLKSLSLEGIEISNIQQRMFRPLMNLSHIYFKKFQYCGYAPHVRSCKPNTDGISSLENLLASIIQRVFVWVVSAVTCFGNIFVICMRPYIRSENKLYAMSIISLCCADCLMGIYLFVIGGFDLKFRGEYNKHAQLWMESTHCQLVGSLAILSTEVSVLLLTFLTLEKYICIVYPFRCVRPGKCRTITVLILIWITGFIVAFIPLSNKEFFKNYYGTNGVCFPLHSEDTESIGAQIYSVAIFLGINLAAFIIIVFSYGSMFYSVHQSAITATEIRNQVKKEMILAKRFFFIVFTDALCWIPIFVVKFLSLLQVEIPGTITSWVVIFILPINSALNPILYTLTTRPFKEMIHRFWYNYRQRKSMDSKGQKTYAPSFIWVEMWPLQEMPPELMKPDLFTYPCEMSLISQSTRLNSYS
# RXFP1(1–72) = target: T3, RXFP1(1–72) (Homo sapiens, UniProt Q9HBX9); assay: 2D 1H-15N HSQC monitored H2 relaxin titration of 15N-labelled RXFP1(1–72); details: 50 μM 15N-labelled RXFP1(1–72); single-site binding curve fit of Asp51, Ala55, Thr61 chemical shifts; pH 6.8, 25 °C; read-out: affinity (Kd) of H2 relaxin for RXFP1(1–72)
# T3 construct: GB1 (N, cleaved yes); made in house; host or cells: E. coli BL21 (DE3) trxB
# T3 sequence (Q9HBX9 23-94 limits assumed): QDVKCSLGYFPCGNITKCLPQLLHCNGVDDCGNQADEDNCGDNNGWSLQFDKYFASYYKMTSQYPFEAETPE
# Description: All RXFP1(1–72) protein samples for nuclear magnetic resonance (NMR) experiments were prepared from lyophilized protein in 50 mM imidazole, with 10 mM CaCl2 at pH 6.8. Recombinant human gene-2 H2 relaxin peptide was kindly provided by Corthera. EL1^(475–486)/EL2-GB1 samples were prepared as described above. Titrant and titrand were dialyzed in the same buffer in the same vessel. All NMR experiments were routinely collected at 25 °C on a 700-MHz Bruker Avance HDIII spectrometer equipped with triple resonance cryoprobe. […] Backbone assignments were made from 3D HNCACB, HNCOCACB, HNCO and HNCACO experiments. Spectra were processed using NMRPipe (ref. [43]) and typically Fourier-transformed after applying Lorentz-to-Gauss window functions in the direct dimension and cosine bells in the indirect dimensions. NMR data were analysed using SPARKY (Goddard, T.D. and Kneller, D.G., University of California, San Francisco). Assignments of the mutant RXFP1(1–72) proteins were determined from the assignments of wild-type RXFP1(1–72).
# The binding of H2 relaxin to RXFP1(1–72) was monitored by acquiring 2D ^1H-^15N Heteronuclear Single Quantum Coherence (HSQC; 2,048 × 256 data points) for each titration point of increasing H2 relaxin: 25, 50, 100, 200, 400 and 500 μM against 50 μM RXFP1(1–72). […]
substance,measurement,setting,value
H2 relaxin: two-chain 6-kDa peptide hormone structurally related to insulin; recombinant human gene-2 H2 relaxin provided by Corthera,Kd,RXFP1 G41D42-AA,> 0.02 µM
same,decrease in H2 relaxin affinity,RXFP1 C40A^ins,sixfold
same,Kd,RXFP1(1–72),200 µM and ~200 µM
